In data set [1] the target is T1, TLR3 ectodomain Mut10 (mouse, UniProt Q99MB1 26-705, S116E;Q118E;K138E;K140E;N142E;K145E;N146E).
T1 sequence: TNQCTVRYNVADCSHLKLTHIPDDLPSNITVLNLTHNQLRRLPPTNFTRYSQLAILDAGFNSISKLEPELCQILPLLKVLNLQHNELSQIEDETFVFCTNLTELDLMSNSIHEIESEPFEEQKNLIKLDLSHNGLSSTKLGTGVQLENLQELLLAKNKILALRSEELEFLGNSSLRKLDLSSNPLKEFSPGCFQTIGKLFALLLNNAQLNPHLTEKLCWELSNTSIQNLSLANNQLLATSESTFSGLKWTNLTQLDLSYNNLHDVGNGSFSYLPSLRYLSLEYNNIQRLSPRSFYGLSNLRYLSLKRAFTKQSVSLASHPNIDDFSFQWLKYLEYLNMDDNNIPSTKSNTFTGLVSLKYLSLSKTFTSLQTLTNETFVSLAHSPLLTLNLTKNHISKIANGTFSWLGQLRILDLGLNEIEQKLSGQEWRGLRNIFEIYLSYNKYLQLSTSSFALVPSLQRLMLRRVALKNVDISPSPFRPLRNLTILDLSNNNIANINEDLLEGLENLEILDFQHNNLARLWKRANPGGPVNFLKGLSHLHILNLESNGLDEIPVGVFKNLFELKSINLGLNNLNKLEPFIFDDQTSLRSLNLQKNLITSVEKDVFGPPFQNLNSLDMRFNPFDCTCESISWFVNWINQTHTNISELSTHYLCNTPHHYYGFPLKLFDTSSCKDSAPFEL
Kind of data set: cryo-EM 3D reconstruction; dimer identical to WT; Protein in 25 mM MES-NaOH pH 5.3, 0.2-0.3 M NaCl (purification buffer); complex formation conditions not in the material. As to conditions: protein: recombinant; tags: C-terminal FLAG-His6; chain copies: 2; blunt.

The target of data set [2] is T2, TLR3 ectodomain WT (mouse, UniProt Q99MB1 26-705).
T2 sequence: T1 sequence with E91S, E93Q, E113K, E115K, E117N, E120K, E121N
The experiment in a line: cryo-EM structure; two TLR3 dimers laterally aligned along dsRNA; Protein in 25 mM MES-NaOH pH 5.3, 0.2-0.3 M NaCl (purification buffer); complex formation conditions not in the material. As to conditions: protein: recombinant; tags: C-terminal FLAG-His6; chain copies: 4; blunt.

Experimental findings from paper PMC9834221, “TLR3 forms a laterally aligned multimeric complex along double-stranded RNA for efficient signal transduction” are described below.

Positions count from the first letter of the chain named.

B1: 46 bp dsRNA (dsRNA)
RNA 1: AUUCUGCGGAUUAUUUGGCAAAGGAAGCAUUGACACAUGCGCCAAU
RNA 2: AUUGGCGCAUGUGUCAAUGCUUCCUUUGCCAAAUAAUCCGCAGAAU
modifications: 2'-O-methyl at strand 1 positions 10-15 and 36-41 (lower case); complement modifications not stated
For the molecule B1, the binding result in data set [1] was “binds”.

B2: 90 bp dsRNA (dsRNA)
RNA 1: AUUCUGCGGAUUAUUUGGCAAAGGAAGCAUUGACACAUGCGCCAAUUCUGCGGAUUAUUUGGCAAAGGAAGCAUUGACACAUGCGCCAAU
RNA 2: AUUGGCGCAUGUGUCAAUGCUUCCUUUGCCAAAUAAUCCGCAGAAUUGGCGCAUGUGUCAAUGCUUCCUUUGCCAAAUAAUCCGCAGAAU
modifications: 2'-O-methyl at strand 1 positions 10-15 and 80-85 (lower case); complement modifications not stated
As for B2, the binding result in data set [2] is listed as “binds”.
